B1: GpH7-B3 variant K334_05P/GpL16-k0 (antibody, human IgG1, kappa)
heavy: not shown
light: DIVMTQSPLSLPVTPGEPASISCQASESLVHSNRNTYLHWYLQKPGQSPQLLIYKVSNRFSGVPDRFSGSGSGTDFTLKISRVEAEDVGVYYCSQNTHVPPTFGQGTKVEIERTVAAPSVFIFPPSDEQLKSGTASVVCLLNNFYPREAKVQWKVDNALQSGNSQESVTEQDSKDSTYSLSSTLTLSKADYEKHKVYACEVTHQGLSSPVTKSFNRGEC
notes: homodimerized; mutation in both H chains; also called Ho Ab
B2: GpH7-B3 variant S267_19Q/GpL16-k0 (antibody, human IgG1, kappa)
heavy: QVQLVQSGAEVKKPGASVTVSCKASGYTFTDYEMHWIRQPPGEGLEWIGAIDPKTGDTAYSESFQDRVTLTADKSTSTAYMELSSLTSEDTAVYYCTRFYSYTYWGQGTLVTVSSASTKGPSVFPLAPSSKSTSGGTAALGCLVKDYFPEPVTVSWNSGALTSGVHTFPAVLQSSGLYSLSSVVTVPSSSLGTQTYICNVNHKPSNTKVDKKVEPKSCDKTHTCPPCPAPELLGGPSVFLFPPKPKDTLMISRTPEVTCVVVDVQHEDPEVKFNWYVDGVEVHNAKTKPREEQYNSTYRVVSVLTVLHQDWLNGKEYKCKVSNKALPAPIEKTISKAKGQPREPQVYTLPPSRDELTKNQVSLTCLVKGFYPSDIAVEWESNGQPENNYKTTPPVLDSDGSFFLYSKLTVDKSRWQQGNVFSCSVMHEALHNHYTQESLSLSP
light: B1 light
notes: as for B1
B3: GpH7-B3 variant S267_09D/GpL16-k0 (antibody, human IgG1, kappa)
heavy: not shown
light: B1 light
notes: as for B1
B4: GpH7-B3 variant P331_04F/GpL16-k0 (antibody, human IgG1, kappa)
heavy: not shown
light: B1 light
notes: as for B1
B5: GpH7-B3 variant K334_13S/GpL16-k0 (antibody, human IgG1, kappa)
heavy: not shown
light: B1 light
notes: as for B1
B6: GpH7-B3 variant S239_18N/GpL16-k0 (antibody, human IgG1, kappa)
heavy: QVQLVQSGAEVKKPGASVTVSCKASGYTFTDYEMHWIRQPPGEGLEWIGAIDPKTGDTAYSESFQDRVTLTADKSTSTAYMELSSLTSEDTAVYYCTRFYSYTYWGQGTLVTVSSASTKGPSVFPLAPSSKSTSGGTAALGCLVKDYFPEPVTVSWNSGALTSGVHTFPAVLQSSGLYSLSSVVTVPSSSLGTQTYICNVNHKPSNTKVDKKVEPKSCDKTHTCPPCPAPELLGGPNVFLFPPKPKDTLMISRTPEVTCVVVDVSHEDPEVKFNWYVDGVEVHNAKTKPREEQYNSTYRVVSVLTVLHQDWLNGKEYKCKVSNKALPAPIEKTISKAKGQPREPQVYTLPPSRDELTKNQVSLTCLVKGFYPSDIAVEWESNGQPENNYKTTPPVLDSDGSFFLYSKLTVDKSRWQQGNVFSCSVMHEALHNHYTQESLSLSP
light: B1 light
notes: as for B1
B7: GpH7-B3 variant S324_06M/GpL16-k0 (antibody, human IgG1, kappa)
heavy: not shown
light: B1 light
notes: as for B1
B8: GpH7-B3 variant P331_02A/GpL16-k0 (antibody, human IgG1, kappa)
heavy: not shown
light: B1 light
notes: as for B1
B9: GpH7-B3 variant S337_15Y/GpL16-k0 (antibody, human IgG1, kappa)
heavy: not shown
light: B1 light
notes: as for B1
B10: GpH7-B3 variant P238_04F/GpL16-k0 (antibody, human IgG1, kappa)
heavy: not shown
light: B1 light
notes: as for B1
B11: GpH7-B3 variant S267_03V/GpL16-k0 (antibody, human IgG1, kappa)
heavy: not shown
light: B1 light
notes: as for B1
B12: GpH7-B3 variant T335_02A/GpL16-k0 (antibody, human IgG1, kappa)
heavy: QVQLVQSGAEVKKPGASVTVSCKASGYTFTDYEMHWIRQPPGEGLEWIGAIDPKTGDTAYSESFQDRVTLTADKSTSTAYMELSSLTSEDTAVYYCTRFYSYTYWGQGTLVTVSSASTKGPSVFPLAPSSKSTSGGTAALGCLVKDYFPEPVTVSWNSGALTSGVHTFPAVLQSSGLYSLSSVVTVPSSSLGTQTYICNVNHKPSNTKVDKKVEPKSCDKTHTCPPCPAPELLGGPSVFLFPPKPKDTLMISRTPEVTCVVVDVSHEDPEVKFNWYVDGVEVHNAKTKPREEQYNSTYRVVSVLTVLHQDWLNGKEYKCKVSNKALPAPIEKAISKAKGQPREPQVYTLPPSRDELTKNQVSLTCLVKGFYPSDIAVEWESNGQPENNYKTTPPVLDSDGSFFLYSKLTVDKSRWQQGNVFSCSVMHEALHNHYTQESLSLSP
light: B1 light
notes: as for B1
B13: GpH7-B3 variant T335_05P/GpL16-k0 (antibody, human IgG1, kappa)
heavy: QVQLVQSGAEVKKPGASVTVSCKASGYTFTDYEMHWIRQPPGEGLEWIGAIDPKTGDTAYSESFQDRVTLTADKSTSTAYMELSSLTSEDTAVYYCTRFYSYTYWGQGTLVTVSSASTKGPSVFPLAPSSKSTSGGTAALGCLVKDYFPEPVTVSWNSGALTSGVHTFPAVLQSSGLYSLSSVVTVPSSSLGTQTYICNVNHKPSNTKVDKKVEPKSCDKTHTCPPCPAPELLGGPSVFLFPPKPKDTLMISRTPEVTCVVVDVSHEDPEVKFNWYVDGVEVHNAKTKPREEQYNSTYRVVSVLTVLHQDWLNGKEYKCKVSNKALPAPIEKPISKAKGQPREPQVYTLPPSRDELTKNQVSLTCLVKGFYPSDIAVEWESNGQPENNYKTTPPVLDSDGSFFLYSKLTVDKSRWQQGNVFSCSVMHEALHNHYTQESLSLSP
light: B1 light
notes: as for B1
B14: GpH7-B3 variant S337_10E/GpL16-k0 (antibody, human IgG1, kappa)
heavy: not shown
light: B1 light
notes: as for B1
B15: GpH7-B3 variant P271_08L/GpL16-k0 (antibody, human IgG1, kappa)
heavy: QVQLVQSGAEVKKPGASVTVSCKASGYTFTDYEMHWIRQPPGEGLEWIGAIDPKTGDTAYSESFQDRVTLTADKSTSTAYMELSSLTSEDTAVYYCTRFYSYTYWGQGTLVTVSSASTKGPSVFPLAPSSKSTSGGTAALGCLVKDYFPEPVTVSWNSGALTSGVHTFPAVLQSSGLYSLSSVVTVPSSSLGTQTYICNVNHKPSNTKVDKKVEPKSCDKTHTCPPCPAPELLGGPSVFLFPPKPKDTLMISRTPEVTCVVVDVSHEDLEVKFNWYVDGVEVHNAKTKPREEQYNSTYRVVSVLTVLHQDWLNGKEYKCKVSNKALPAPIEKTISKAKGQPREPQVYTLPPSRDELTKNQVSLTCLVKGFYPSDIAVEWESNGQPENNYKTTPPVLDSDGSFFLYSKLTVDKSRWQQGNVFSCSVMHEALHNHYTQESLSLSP
light: B1 light
notes: as for B1
B16: GpH7-B3 variant S298_08L/GpL16-k0 (antibody, human IgG1, kappa)
heavy: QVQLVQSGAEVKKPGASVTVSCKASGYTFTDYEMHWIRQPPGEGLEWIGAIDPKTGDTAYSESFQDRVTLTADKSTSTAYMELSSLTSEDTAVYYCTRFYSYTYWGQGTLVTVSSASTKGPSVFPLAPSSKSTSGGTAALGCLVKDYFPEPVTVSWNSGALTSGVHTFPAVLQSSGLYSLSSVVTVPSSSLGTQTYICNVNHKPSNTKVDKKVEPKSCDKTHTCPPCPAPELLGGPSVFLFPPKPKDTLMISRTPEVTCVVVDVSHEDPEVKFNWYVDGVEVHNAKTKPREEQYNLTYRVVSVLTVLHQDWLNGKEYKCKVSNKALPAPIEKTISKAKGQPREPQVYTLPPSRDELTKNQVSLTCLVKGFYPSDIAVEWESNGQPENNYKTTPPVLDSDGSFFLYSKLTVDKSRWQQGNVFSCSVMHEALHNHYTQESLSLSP
light: B1 light
notes: as for B1
B17: GpH7-B3 variant T335_10E/GpL16-k0 (antibody, human IgG1, kappa)
heavy: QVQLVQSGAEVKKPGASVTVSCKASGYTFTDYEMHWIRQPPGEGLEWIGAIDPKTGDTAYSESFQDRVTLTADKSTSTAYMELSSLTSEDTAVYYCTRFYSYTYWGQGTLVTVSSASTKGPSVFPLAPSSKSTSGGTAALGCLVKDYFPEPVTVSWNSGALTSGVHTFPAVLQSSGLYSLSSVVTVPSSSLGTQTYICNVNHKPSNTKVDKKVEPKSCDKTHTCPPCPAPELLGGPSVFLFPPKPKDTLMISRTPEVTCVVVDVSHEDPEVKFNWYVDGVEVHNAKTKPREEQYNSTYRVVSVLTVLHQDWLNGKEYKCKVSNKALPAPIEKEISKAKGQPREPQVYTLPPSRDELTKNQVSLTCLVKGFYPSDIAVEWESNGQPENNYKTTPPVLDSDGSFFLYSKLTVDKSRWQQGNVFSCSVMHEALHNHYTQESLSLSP
light: B1 light
notes: as for B1
B18: GpH7-B3 variant S337_20W/GpL16-k0 (antibody, human IgG1, kappa)
heavy: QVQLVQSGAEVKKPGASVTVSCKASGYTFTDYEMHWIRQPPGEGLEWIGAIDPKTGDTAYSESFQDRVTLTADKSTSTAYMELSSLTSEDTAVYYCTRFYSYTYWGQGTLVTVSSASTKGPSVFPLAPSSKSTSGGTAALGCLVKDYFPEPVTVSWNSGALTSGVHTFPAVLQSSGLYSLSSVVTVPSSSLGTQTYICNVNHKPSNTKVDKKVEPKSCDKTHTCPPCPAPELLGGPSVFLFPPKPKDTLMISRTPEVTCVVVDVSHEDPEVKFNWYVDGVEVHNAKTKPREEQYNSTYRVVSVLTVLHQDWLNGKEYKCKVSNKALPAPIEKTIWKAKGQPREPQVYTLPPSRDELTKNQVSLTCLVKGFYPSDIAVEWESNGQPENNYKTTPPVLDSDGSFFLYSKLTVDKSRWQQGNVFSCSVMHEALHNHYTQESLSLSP
light: B1 light
notes: as for B1
B19: GpH7-B3 variant P238_03V/GpL16-k0 (antibody, human IgG1, kappa)
heavy: not shown
light: B1 light
notes: as for B1
B20: GpH7-B3 variant K334_10E/GpL16-k0 (antibody, human IgG1, kappa)
heavy: not shown
light: B1 light
notes: as for B1
B21: GpH7-B3 variant S239_10E/GpL16-k0 (antibody, human IgG1, kappa)
heavy: not shown
light: B1 light
notes: as for B1
B22: GpH7-B3 variant S337_18N/GpL16-k0 (antibody, human IgG1, kappa)
heavy: not shown
light: B1 light
notes: as for B1
B23: GpH7-B3 variant P331_16H/GpL16-k0 (antibody, human IgG1, kappa)
heavy: not shown
light: B1 light
notes: as for B1
B24: GpH7-B3 variant T335_13S/GpL16-k0 (antibody, human IgG1, kappa)
heavy: not shown
light: B1 light
notes: as for B1
B25: GpH7-B3 variant L328_13S/GpL16-k0 (antibody, human IgG1, kappa)
heavy: not shown
light: B1 light
notes: as for B1
B26: GpH7-B3 variant S239_08L/GpL16-k0 (antibody, human IgG1, kappa)
heavy: not shown
light: B1 light
notes: as for B1
B27: GpH7-B3 variant L235_20W/GpL16-k0 (antibody, human IgG1, kappa)
heavy: not shown
light: B1 light
notes: as for B1
B28: GpH7-B3 variant S337_07I/GpL16-k0 (antibody, human IgG1, kappa)
heavy: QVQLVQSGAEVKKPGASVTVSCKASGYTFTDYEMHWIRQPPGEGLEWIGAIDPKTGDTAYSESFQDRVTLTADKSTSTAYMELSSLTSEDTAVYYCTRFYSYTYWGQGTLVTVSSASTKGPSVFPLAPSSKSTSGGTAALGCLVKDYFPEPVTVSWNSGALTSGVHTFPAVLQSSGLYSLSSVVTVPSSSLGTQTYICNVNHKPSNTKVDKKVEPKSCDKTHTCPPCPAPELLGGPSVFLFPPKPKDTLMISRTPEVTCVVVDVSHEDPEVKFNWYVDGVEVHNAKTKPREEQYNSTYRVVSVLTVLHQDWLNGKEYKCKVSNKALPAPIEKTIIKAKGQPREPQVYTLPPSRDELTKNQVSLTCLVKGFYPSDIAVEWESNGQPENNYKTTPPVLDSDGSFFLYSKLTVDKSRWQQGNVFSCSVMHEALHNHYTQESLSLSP
light: B1 light
notes: as for B1
B29: GpH7-B3 variant L328_14T/GpL16-k0 (antibody, human IgG1, kappa)
heavy: not shown
light: B1 light
notes: as for B1
B30: GpH7-B3 variant S337_03V/GpL16-k0 (antibody, human IgG1, kappa)
heavy: not shown
light: B1 light
notes: as for B1
B31: GpH7-B3 variant S337_16H/GpL16-k0 (antibody, human IgG1, kappa)
heavy: not shown
light: B1 light
notes: as for B1
B32: GpH7-B3 variant K334_08L/GpL16-k0 (antibody, human IgG1, kappa)
heavy: not shown
light: B1 light
notes: as for B1
B33: GpH7-B3 variant P331_20W/GpL16-k0 (antibody, human IgG1, kappa)
heavy: not shown
light: B1 light
notes: as for B1
B34: GpH7-B3 variant S337_09D/GpL16-k0 (antibody, human IgG1, kappa)
heavy: not shown
light: B1 light
notes: as for B1
B35: GpH7-B3 variant K334_19Q/GpL16-k0 (antibody, human IgG1, kappa)
heavy: not shown
light: B1 light
notes: as for B1
B36: GpH7-B3 variant P331_15Y/GpL16-k0 (antibody, human IgG1, kappa)
heavy: not shown
light: B1 light
notes: as for B1
B37: GpH7-B3 variant S337_19Q/GpL16-k0 (antibody, human IgG1, kappa)
heavy: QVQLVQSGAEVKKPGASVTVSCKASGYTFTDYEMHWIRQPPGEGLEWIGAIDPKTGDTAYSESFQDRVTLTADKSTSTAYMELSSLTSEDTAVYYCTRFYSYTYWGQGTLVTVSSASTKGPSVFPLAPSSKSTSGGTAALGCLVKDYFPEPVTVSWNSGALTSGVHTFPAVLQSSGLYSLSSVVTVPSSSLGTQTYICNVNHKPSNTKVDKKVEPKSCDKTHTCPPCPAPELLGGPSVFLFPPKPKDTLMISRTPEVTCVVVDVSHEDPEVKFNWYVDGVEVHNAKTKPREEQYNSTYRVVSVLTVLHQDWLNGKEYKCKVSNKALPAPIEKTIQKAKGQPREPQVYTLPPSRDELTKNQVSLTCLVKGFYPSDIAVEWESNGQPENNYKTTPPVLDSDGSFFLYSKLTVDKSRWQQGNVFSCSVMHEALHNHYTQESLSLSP
light: B1 light
notes: as for B1
B38: GpH7-B3 variant S337_06M/GpL16-k0 (antibody, human IgG1, kappa)
heavy: not shown
light: B1 light
notes: as for B1
B39: GpH7-B3 variant S267_06M/GpL16-k0 (antibody, human IgG1, kappa)
heavy: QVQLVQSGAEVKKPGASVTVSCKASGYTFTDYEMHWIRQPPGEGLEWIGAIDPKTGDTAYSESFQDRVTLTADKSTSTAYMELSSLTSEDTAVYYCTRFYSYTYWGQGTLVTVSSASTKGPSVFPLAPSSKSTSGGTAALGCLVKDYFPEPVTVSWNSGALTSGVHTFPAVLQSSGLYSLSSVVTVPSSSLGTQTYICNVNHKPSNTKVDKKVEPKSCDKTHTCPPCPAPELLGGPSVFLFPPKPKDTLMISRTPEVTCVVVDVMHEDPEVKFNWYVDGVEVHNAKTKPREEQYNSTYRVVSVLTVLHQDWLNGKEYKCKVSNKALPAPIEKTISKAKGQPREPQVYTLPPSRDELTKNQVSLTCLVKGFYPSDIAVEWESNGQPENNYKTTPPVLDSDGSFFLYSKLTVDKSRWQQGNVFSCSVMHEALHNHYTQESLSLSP
light: B1 light
notes: as for B1
B40: GpH7-B3 variant T335_07I/GpL16-k0 (antibody, human IgG1, kappa)
heavy: not shown
light: B1 light
notes: as for B1

For this assay, the target named is T1, FcγRIIa R (extracellular domain with a His tag at the C terminus) (human, UniProt P12318 34-217).
T1 construct: extracellular domain; expressed in FreeStyle293 cells; also called FcgRIIa R; FcγRIIa type R; not shown: His tag at the C terminus
T1 sequence (looked up): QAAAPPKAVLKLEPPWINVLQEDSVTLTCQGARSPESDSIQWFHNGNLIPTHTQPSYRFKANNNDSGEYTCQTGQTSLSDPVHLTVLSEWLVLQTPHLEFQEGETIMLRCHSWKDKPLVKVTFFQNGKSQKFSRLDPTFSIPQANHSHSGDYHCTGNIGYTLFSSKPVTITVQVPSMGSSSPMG
In words: SPR Biacore, relative binding. Background: In SPR one partner is held on a chip, and binding of the other changes the refractive index at the surface.
On to B1, for which the Ho/Con_2aR is 102 % of GpH7-B3/GpL16-k0 (=100).

On to B2, for which the Ho/Con_2aR is 110 % of GpH7-B3/GpL16-k0 (=100).

As for B3, the Ho/Con_2aR is 167 % of GpH7-B3/GpL16-k0 (=100).

For the molecule B4, the Ho/Con_2aR was 106 % of GpH7-B3/GpL16-k0 (=100).

B5: the Ho/Con_2aR was 106 % of GpH7-B3/GpL16-k0 (=100).

With B6, the Ho/Con_2aR was 103 % of GpH7-B3/GpL16-k0 (=100).

Turning to B7, the Ho/Con_2aR is 118 % of GpH7-B3/GpL16-k0 (=100).

For the molecule B8, the Ho/Con_2aR was 102 % of GpH7-B3/GpL16-k0 (=100).

As to B9, the Ho/Con_2aR was 100 % of GpH7-B3/GpL16-k0 (=100).

On to B10, for which the Ho/Con_2aR was 146 % of GpH7-B3/GpL16-k0 (=100).

Regarding B11, the Ho/Con_2aR was 115 % of GpH7-B3/GpL16-k0 (=100).

Take B12: the Ho/Con_2aR is 102 % of GpH7-B3/GpL16-k0 (=100).

As to B13, the Ho/Con_2aR was 104 % of GpH7-B3/GpL16-k0 (=100).

As for B14, the Ho/Con_2aR is 110 % of GpH7-B3/GpL16-k0 (=100).

On to B15, for which the Ho/Con_2aR is 102 % of GpH7-B3/GpL16-k0 (=100).

With B16, the Ho/Con_2aR is 101 % of GpH7-B3/GpL16-k0 (=100).

Turning to B17, the Ho/Con_2aR is 109 % of GpH7-B3/GpL16-k0 (=100).

B18: the Ho/Con_2aR was 105 % of GpH7-B3/GpL16-k0 (=100).

Turning to B19, the Ho/Con_2aR was 116 % of GpH7-B3/GpL16-k0 (=100).

With B20, the Ho/Con_2aR was 106 % of GpH7-B3/GpL16-k0 (=100).

For B21, the Ho/Con_2aR is 122 % of GpH7-B3/GpL16-k0 (=100).

B22: the Ho/Con_2aR was 103 % of GpH7-B3/GpL16-k0 (=100).

Take B23: the Ho/Con_2aR was 100 % of GpH7-B3/GpL16-k0 (=100).

As for B24, the Ho/Con_2aR was 102 % of GpH7-B3/GpL16-k0 (=100).

With B25, the Ho/Con_2aR is 108 % of GpH7-B3/GpL16-k0 (=100).

For the molecule B26, the Ho/Con_2aR is 106 % of GpH7-B3/GpL16-k0 (=100).

For B27, the Ho/Con_2aR is 114 % of GpH7-B3/GpL16-k0 (=100).

In the case of B28, the Ho/Con_2aR was 103 % of GpH7-B3/GpL16-k0 (=100).

For B29, the Ho/Con_2aR was 118 % of GpH7-B3/GpL16-k0 (=100).

With B30, the Ho/Con_2aR is 102 % of GpH7-B3/GpL16-k0 (=100).

Take B31: the Ho/Con_2aR was 107 % of GpH7-B3/GpL16-k0 (=100).

Take B32: the Ho/Con_2aR was 105 % of GpH7-B3/GpL16-k0 (=100).

On to B33, for which the Ho/Con_2aR was 102 % of GpH7-B3/GpL16-k0 (=100).

Turning to B34, the Ho/Con_2aR is 114 % of GpH7-B3/GpL16-k0 (=100).

With B35, the Ho/Con_2aR was 108 % of GpH7-B3/GpL16-k0 (=100).

On to B36, for which the Ho/Con_2aR was 105 % of GpH7-B3/GpL16-k0 (=100).

B37: the Ho/Con_2aR is 102 % of GpH7-B3/GpL16-k0 (=100).

With B38, the Ho/Con_2aR is 101 % of GpH7-B3/GpL16-k0 (=100).

Turning to B39, the Ho/Con_2aR was 102 % of GpH7-B3/GpL16-k0 (=100).

On to B40, for which the Ho/Con_2aR was 107 % of GpH7-B3/GpL16-k0 (=100).

Values taken from patent US20180155451A1 (published 2018).
